Laboratory results as given in patent publication US20150119341A1 (PALATIN TECHNOLOGIES, published 2015).
Like-named read-outs stand apart in the source and are kept apart here. [ ]: non-standard residue; d: D form. Nle = CCCC[C@H](N)C(=O)O; Orn = NCCC[C@H](N)C(=O)O; Dab = NCC[C@H](N)C(=O)O; Sar = CNCC(=O)O

Tests used:
[1] = target: T1, human melanocortin-1 receptor (hMCR-1) expressed by the human melanoma cell line HBL (human, UniProt Q01726 1-317); experiment: cell-based or functional assay
[2] = target: T1, human melanocortin-1 receptor (hMCR-1) …; experiment: cell-based or functional assay; remark: listed apart in the source
[3] = target: T1, human melanocortin-1 receptor (hMCR-1) …; experiment: cell-based or functional assay; remark: listed apart in the source
[4] = target: T1, human melanocortin-1 receptor (hMCR-1) …; experiment: cell-based or functional assay; remark: listed apart in the source
[5] = target: T2, recombinant human melanocortin-4 receptor (hMCR-4) in membrane homogenates of HEK-293 cells (human, UniProt P32245 1-332); experiment: competitive inhibition of [I125]-NDP-alpha-MSH, hMCR-4 HEK-293 membranes
T2 construct: whole, on cells; Used as membrane homogenates, not intact cells; also called MC-4
Protocol: (§1) A competitive inhibition binding assay was performed using membrane homogenates prepared from HEK-293 cells that express recombinant hMCR-la or hMCR-4 (in each instance where the h prefix refers to human), or alternatively membrane homogenates from B16-F10 mouse melanoma cells containing endogenous murine MCR-1. In the examples that follow, all MCR-1 and MCR-4 values are for human recombinant receptors, unless otherwise noted. Assays were performed in 96 well polypropylene round-bottom plates (VWR catalog number 12777-030).
(§2) Membrane homogenates were incubated with 0.1 nM [I¹²⁵]-NDP-α-MSH (Perkin Elmer) and increasing concentrations of test peptides of the present invention in buffer containing 25 mM HEPES buffer (pH 7.5) with 100 mM NaCl, 2 mM CaCl₂, 2 mM MgCl₂, 0.3 mM 1,10-phenanthroline, and 0.2% bovine serum albumin. After incubation for 90 minutes at 37° C., the assay mixture was filtered onto GF/B Unifilter plates (Perkin-Elmer catalog number 6005177) and washed with 3 mL of ice-cold buffer per well. Filters were air dried and 35 μL of scintillation cocktail added to each well. Plates were counted in a Microbeta counter for bound radioactivity. […] Maximal specific binding (100%) was defined as the difference in radioactivity (cpm) bound to cell membranes in the absence and presence of 1 μM NDP-α-MSH. Each assay was conducted in duplicate and the actual mean values are described, with results less than 0% reported as 0%. Ki values for peptides of the present invention were determined using Graph-Pad PRISM® curve-fitting software.

[6] = target: T3, recombinant human melanocortin-1 receptor (hMCR-1a) in membrane homogenates of HEK-293 cells (human, UniProt Q01726 1-317); experiment: competitive inhibition of [I125]-NDP-alpha-MSH, hMCR-1 HEK-293 membranes
T3 construct: whole, on cells; Used as membrane homogenates, not intact cells; also called hMCR-la; MC-1
Protocol: as §1, §2

[7] = target: T1, human melanocortin-1 receptor (hMCR-1) …; experiment: cell-based or functional assay; remark: listed apart in the source
[8] = target: T1, human melanocortin-1 receptor (hMCR-1) …; experiment: cell-based or functional assay; remark: listed apart in the source

T3 sequence (Q01726 whole entry): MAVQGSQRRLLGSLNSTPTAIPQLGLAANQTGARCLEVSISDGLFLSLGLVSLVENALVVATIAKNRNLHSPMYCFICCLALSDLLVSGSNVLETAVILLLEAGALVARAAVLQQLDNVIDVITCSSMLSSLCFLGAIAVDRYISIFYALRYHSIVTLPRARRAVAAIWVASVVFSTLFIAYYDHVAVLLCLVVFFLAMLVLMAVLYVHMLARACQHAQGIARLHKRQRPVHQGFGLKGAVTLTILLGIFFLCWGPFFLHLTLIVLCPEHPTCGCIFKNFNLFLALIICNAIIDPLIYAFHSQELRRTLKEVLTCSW
T1 sequence (Q01726 whole entry): as above
T2 sequence (P32245 whole entry): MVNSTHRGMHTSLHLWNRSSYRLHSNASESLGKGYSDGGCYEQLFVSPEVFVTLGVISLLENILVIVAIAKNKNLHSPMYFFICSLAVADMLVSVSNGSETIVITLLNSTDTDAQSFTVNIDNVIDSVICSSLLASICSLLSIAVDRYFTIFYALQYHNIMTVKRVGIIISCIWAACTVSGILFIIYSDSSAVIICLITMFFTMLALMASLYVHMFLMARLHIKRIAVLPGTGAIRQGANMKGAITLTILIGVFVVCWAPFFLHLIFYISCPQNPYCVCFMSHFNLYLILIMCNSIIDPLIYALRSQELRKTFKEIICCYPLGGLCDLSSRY

Binder	Ki [5] [nM]	Ki [6] [nM]	also measured
Ac-[Nle]AH[dF]R[Sar]W-NH2 (SMILES CCCC[C@H](NC(C)=O)C(=O)N[C@@H](C)C(=O)N[C@@H](Cc1c[nH]cn1)C(=O)N[C@H](Cc1ccccc1)C(=O)N[C@@H](CCCNC(=N)N)C(=O)N(C)CC(=O)N[C@@H](Cc1c[nH]c2ccccc12)C(N)=O) [Ac-Nle-Ala-His-D-Phe-Arg-Sar-Trp-NH2]	–	–	MC-1 EC50 (average; cAMP HBL) [1]: 0.17 nM
Ac-[Nle]A[Dab][dF]RAW-NH2 (SMILES CCCC[C@H](NC(C)=O)C(=O)N[C@@H](C)C(=O)N[C@@H](CCN)C(=O)N[C@H](Cc1ccccc1)C(=O)N[C@@H](CCCNC(=N)N)C(=O)N[C@@H](C)C(=O)N[C@@H](Cc1c[nH]c2ccccc12)C(N)=O) [Ac-Nle-Ala-Dab-D-Phe-Arg-Ala-Trp-NH2]	–	–	MC-1 EC50 (average; cAMP HBL) [2]: 0.165 nM
Ac-[Nle]A[Orn][dF]RAW-NH2 (SMILES CCCC[C@H](NC(C)=O)C(=O)N[C@@H](C)C(=O)N[C@@H](CCCN)C(=O)N[C@H](Cc1ccccc1)C(=O)N[C@@H](CCCNC(=N)N)C(=O)N[C@@H](C)C(=O)N[C@@H](Cc1c[nH]c2ccccc12)C(N)=O) [Ac-Nle-Ala-Orn-D-Phe-Arg-Ala-Trp-NH2]	–	–	MC-1 EC50 (average; cAMP HBL) [3]: 0.045 nM
Ac-[Nle]AH[dF]RGW-NH2 (SMILES CCCC[C@H](NC(C)=O)C(=O)N[C@@H](C)C(=O)N[C@@H](Cc1c[nH]cn1)C(=O)N[C@H](Cc1ccccc1)C(=O)N[C@@H](CCCNC(=N)N)C(=O)NCC(=O)N[C@@H](Cc1c[nH]c2ccccc12)C(N)=O, synthetic linear peptide) [Ac-Nle-Ala-His-D-Phe-Arg-Gly-Trp-NH2]	885	0.8	MC-1 EC50 (average; cAMP HBL) [7]: 0.038 nM

Now from value to binder, other results behind:

Ki [5] [nM]	Ki [6] [nM]	Binder	also measured
3420	35	Ac-[Nle]H[dF]RAW-NH2 (SMILES CCCC[C@H](NC(C)=O)C(=O)N[C@@H](Cc1c[nH]cn1)C(=O)N[C@H](Cc1ccccc1)C(=O)N[C@@H](CCCNC(=N)N)C(=O)N[C@@H](C)C(=O)N[C@@H](Cc1c[nH]c2ccccc12)C(N)=O, synthetic linear peptide) [Ac-Nle-His-D-Phe-Arg-Ala-Trp-NH2]	MC-1 EC50 (average; cAMP HBL) [4]: 1 nM
10000	4	Ac-[Nle]AK[dF]RAW-NH2 (SMILES CCCC[C@H](NC(C)=O)C(=O)N[C@@H](C)C(=O)N[C@@H](CCCCN)C(=O)N[C@H](Cc1ccccc1)C(=O)N[C@@H](CCCNC(=N)N)C(=O)N[C@@H](C)C(=O)N[C@@H](Cc1c[nH]c2ccccc12)C(N)=O, synthetic linear peptide) [Ac-Nle-Ala-Lys-D-Phe-Arg-Ala-Trp-NH2]	MC-1 EC50 (average; cAMP HBL) [8]: 0.1 nM
